Substrate in this data set: Cc1cc(=O)oc2cc(NC(=O)[C@H](N)CC(C)C)ccc12
Description: Steady-state activity assay with Leu-AMC (fluorescence). In kind it is biochemical, Pseudomonas aeruginosa. To be noted: other: Leu-AMC varied, 3 mM MnCl2, pH 8.0, 25.0 °C. Here is the method:
A BMG Labtech POLARstar Omega plate reader was used for activity assays and kinetic studies involving amino acids conjugated to para-nitroaniline (pNA) (Sigma) or peptides as substrates. Assays were carried out at 25 °C in clear half-area 96-well plates (Greiner Bio-One). The pNA product formed upon PaPepA-mediated bond cleavage strongly absorbs at 405 nm; therefore, initial rates were measured by monitoring the increase in absorbance at 405 nm over time. For kinetic assays investigating Leu-AMC as a substrate, a SpectraMax M2E was used. Reactions were carried out using black half-area 96-well plates with clear bottoms (Greiner Bio-One). Product formation was assessed by monitoring changes in fluorescence, with the excitation wavelength set at 341 nm and emission at 441 nm. The cutoff was 420 nm. PMT gain was set to medium, with six flashes per read. PaPepA was added at a final concentration of 100 nM to start reactions. Calibration curves of pNA concentration vs absorbance and AMC vs fluorescence were constructed, and initial rate values were divided by the slope of these calibration curves to reveal the rate of product formation over time (Table S2).
For all assays excluding pH dependence curves, buffer conditions were as follows: 100 mM HEPES, 50 mM KCl, and pH 8.0. For assays carried out under pseudo-first-order conditions, one reaction component was fixed and in excess, while the other was varied. If [metal] was varied, [Leu-pNA] was fixed at 2 mM or [Leu-AMC] was fixed at 170 μM. For assays involving variation of aa-pNA or aa-AMC, MnCl2 was added to a final concentration of 3 mM. PaPepA was added at a final concentration of 100 nM in studies containing MnCl2, and to a final concentration of 1 μM in studies containing MgCl2 as the metal cofactor. Table 1 summarizes steady-state parameters described in Scheme 1 and obtained with different substrates.

B1: PaPepA (Pseudomonas aeruginosa UCBPP-PA14) (protein)
chain: MEFLVKSVRPETLKTATLVLAVGEGRKLGASAKAVDDATGGAISAVLKRGDLAGKVGQTLLLQSLPNLKAERVLLVGAGKERELGDRQYRKLASAVLSTLKGLAGADAALALGDLAVKGRGAHAKARLLVETLADGLYVFDRYKSQKAEPLKLKKLTLLADKADSAAVEQGSKEAQAIANGMALTRDLGNLPPNVCHPTFLGEQAKGLAKEFKSLKVEVLDEKKLRELGMGSFLAVAQGSDQPPRLIILQYNGAKKDQAPHVLVGKGITFDTGGISLKPGLGMDEMKFDMCGAASVFGTFRAVLELQLPINLVGLLACAENMPSGGATRPGDIVTTMSGQTVEILNTDAEGRLVLCDALTYAERFKPQSVIDIATLTGACIVALGSNTSGLMGNNEALVRQLLKAGEFADDRAWQLPLFDEYQEQLDSPFADIANIGGPKAGTITAGCFLSRFAKKYHWAHLDIAGTAWISGGKDKGATGRPVPLLTQYLLERAK
notes: GG stays after cleavage) (N); made in house; host or cells: E. coli BL21(DE3)
What is called Km is the substrate concentration at which the rate is half of its maximum. In general, kcat refers to the maximal rate divided by the concentration of active sites. In general, kcat/Km refers to the second-order rate constant that governs catalysis at low substrate concentration. As to B1, the Km was found to be 16 ± 1 µM, the kcat turned out to be 0.56 ± 0.01 s⁻¹ and the kcat/Km is 35400 ± 3100 M⁻¹ s⁻¹.

For the origin of these results see article PMC10666288, “Unveiling the Catalytic Mechanism of a Processive Metalloaminopeptidase” (Biochemistry, 2023).
